Data set [1] addresses T1, E2F8 DBD1-DBD2 (human, UniProt A0AVK6 110-350). The data set is described as follows: ITC; 20 C; ITC: 20 mM HEPES pH 7.5, 150 mM NaCl, 5% glycerol, TCEP (printed 0.5 M), 20 C; 0.1 mM protein into 0.012-0.016 mM DNA. A general note: In ITC the heat of successive injections is recorded.
In data set [2] the target is T1, E2F8 DBD1-DBD2. The data set is described as follows: ITC; no binding detected under same conditions, 20 C; ITC: 20 mM HEPES pH 7.5, 150 mM NaCl, 5% glycerol, TCEP (printed 0.5 M), 20 C; 0.1 mM protein into 0.012-0.016 mM DNA.

Data on 2 molecules can be found in PMC4686757.

T1 sequence (A0AVK6 110-350): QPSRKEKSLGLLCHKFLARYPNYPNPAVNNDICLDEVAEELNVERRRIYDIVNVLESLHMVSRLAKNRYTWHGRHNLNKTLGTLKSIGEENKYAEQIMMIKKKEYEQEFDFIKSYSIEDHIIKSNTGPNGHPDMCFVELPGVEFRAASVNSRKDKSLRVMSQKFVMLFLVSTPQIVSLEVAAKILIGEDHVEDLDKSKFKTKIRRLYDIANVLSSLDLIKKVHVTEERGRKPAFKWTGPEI

B1: E2F8 SELEX-preferred site GGCGGG (dsDNA)
DNA 1: TTTTTGGCGGGAAAA
DNA 2: TTTTCCCGCCAAAAA
As for B1, the Kd with E2F8 DBD1-DBD2 [1] is ~0.26 µM.

B2: canonical symmetrical E2F site GCGCGCC (dsDNA)
DNA 1: CTTTTGCGCGCCAAAG
DNA 2: CTTTGGCGCGCAAAAG
For B2, in the data set with E2F8 DBD1-DBD2 [2], the binding result was “no binding”.

One may read the Kd as the concentration at which binding is half-saturated. Low values mean tighter binding, high ones weaker binding.
